Data as given in publication PMC3815341.

Tests used:
[1] = tested on: CCC(=O)Oc1ccc([N+](=O)[O-])cc1; test: purified protein; conditions: pH 7, 37°C
[2] = tested on: CC(=O)Oc1ccc([N+](=O)[O-])cc1; test: purified protein; conditions: pH 7, 37°C
[3] = tested on: CCCC(=O)Oc1ccc([N+](=O)[O-])cc1; test: purified protein; conditions: pH 7, 37°C
[4] = tested on: CCCCCC(=O)Oc1ccc([N+](=O)[O-])cc1; test: purified protein; conditions: pH 7, 37°C
[5] = substrate: CCC(=O)Oc1ccc([N+](=O)[O-])cc1; test: pNP release, initial rates, Michaelis-Menten fit; format: biochemical, Pseudomonas putida
[6] = substrate: CCCCCCCCCC(=O)Oc1ccc([N+](=O)[O-])cc1; test: pNP release, initial rates, Michaelis-Menten fit; format: biochemical, Pseudomonas putida; conditions: pH 8, 37°C
[7] = substrate: CC(=O)Oc1ccc([N+](=O)[O-])cc1; test: pNP release, initial rates, Michaelis-Menten fit; format: biochemical, Pseudomonas putida
[8] = substrate: CCCCCC(=O)Oc1ccc([N+](=O)[O-])cc1; test: pNP release, initial rates, Michaelis-Menten fit; format: biochemical, Pseudomonas putida; conditions: pH 8, 37°C
[9] = substrate: CCCCCCCCCC(=O)Oc1ccc([N+](=O)[O-])cc1; test: pNP release, initial rates, Michaelis-Menten fit; format: biochemical, Pseudomonas aeruginosa; conditions: pH 8, 37°C
[10] = substrate: CC(=O)Oc1ccc([N+](=O)[O-])cc1; test: pNP release, initial rates, Michaelis-Menten fit; format: biochemical, Pseudomonas aeruginosa; conditions: pH 8, 37°C
[11] = substrate: CCCCCC(=O)Oc1ccc([N+](=O)[O-])cc1; test: pNP release, initial rates, Michaelis-Menten fit; format: biochemical, Pseudomonas aeruginosa; conditions: pH 8, 37°C
[12] = substrate: CCC(=O)Oc1ccc([N+](=O)[O-])cc1; test: pNP release, initial rates, Michaelis-Menten fit; format: biochemical, Rhodopseudomonas palustris; conditions: pH 9, 37°C
[13] = substrate: CC(=O)Oc1ccc([N+](=O)[O-])cc1; test: pNP release, initial rates, Michaelis-Menten fit; format: biochemical, Rhodopseudomonas palustris; conditions: pH 9, 37°C
[14] = substrate: CCCCCC(=O)Oc1ccc([N+](=O)[O-])cc1; test: pNP release, initial rates, Michaelis-Menten fit; format: biochemical, Rhodopseudomonas palustris; conditions: pH 9, 37°C
[15] = substrate: CCCC(=O)Oc1ccc([N+](=O)[O-])cc1; test: pNP release, initial rates, Michaelis-Menten fit; format: biochemical, Rhodopseudomonas palustris; conditions: pH 9, 37°C
[16] = substrate: CC(=O)Oc1ccc([N+](=O)[O-])cc1; test: pNP release, initial rates, Michaelis-Menten fit; format: biochemical, Streptomyces avermitilis; conditions: pH 8, 37°C

**Q.** For “RpEST-1 (Rhodopseudomonas palustris CGA009)”, which Km [1] is on record?
**A.** 1500 ± 100 µM

**Q.** What about the kcat [1] of the same molecule?
**A.** 307 ± 15.3 s⁻¹

**Q.** What about the kcat/Km [1] of the same molecule?
**A.** 205000 M⁻¹ s⁻¹

**Q.** What about the Km [2] of the same molecule?
**A.** 300 ± 0 µM

**Q.** What about the kcat [2] of the same molecule?
**A.** 65.6 ± 1.5 s⁻¹

**Q.** And the kcat/Km [2]?
**A.** 219000 M⁻¹ s⁻¹

**Q.** And the Km [3]?
**A.** 500 ± 0 µM

**Q.** And the kcat [3]?
**A.** 75.5 ± 1.6 s⁻¹

**Q.** And the kcat/Km [3]?
**A.** 151000 M⁻¹ s⁻¹

**Q.** What about the Km [4] of the same molecule?
**A.** 1900 ± 100 µM

**Q.** And the kcat [4]?
**A.** 217 ± 11.8 s⁻¹

**Q.** What about the kcat/Km [4] of the same molecule?
**A.** 114000 M⁻¹ s⁻¹

B1: PpEST-3 (Pseudomonas putida KT2440) (protein)
chain: MIQPVAERTPAGTSYLDVGQGQPVVLIHGVGLNKEMWGGQFVGLANDYRVIAYDMLGHGQSRVPAADTPLEGYADQLAELLDHLQIAQATVIGFSMGGLVARAFALNYPQRLAALVVLNSVFNRTPEQSAGVIARAAQAAELGPDANVDAALDRWFSREYKAANPAQVAAIRQVLASNDPQGYHTTYSLFATQDMYRADDLGSIQVPTLIATGELDSGSTPAMTRQLAACIPGARSVVLAEQRHMMPVEAPREVNKMLLDFLTQARTLTESAKGIVA
**Q.** With B1 as the molecule, how does the Km ([5]; pH 8, 37°C) read?
**A.** 100 ± 0 µM

**Q.** And the kcat ([5]; pH 8, 37°C)?
**A.** 6.8 ± 0.1 s⁻¹

**Q.** And the kcat/Km ([5]; pH 8, 37°C)?
**A.** 67900 M⁻¹ s⁻¹

**Q.** And the Km [6]?
**A.** 800 ± 100 µM

**Q.** And the kcat [6]?
**A.** 8.7 ± 0.4 s⁻¹

**Q.** And the kcat/Km [6]?
**A.** 10900 M⁻¹ s⁻¹

**Q.** What about the Km ([7]; pH 8, 37°C) of the same molecule?
**A.** 1000 ± 100 µM

**Q.** What about the kcat ([7]; pH 8, 37°C) of the same molecule?
**A.** 6.2 ± 0.3 s⁻¹

**Q.** What about the kcat/Km ([7]; pH 8, 37°C) of the same molecule?
**A.** 6200 M⁻¹ s⁻¹

**Q.** What about the Km [8] of the same molecule?
**A.** 200 ± 0 µM

**Q.** And the kcat [8]?
**A.** 12.1 ± 0.3 s⁻¹

**Q.** And the kcat/Km [8]?
**A.** 60400 M⁻¹ s⁻¹

B2: PpEST-1 (Pseudomonas putida KT2440) (protein)
chain: MRNRLVLLPGWGLGTAALEPLAASLRAQDARLQVELMPLPELAHSDVQAWIDHLDRKLPNDVWLGGWSLGGMLASALAHKRGDHCCGLLTLASNPSFLARPDWPHGMAEDTFGTFLDGCRNHTQVTLKRFRTLCSDGALQPRTLLRQLGVGVPETDPLYLATGLEVLAKLDTREALQAYDGPQLHLFAGSDALVPAEAAKALSELLPDVEVGMVEDSSHAFLLEYPQELAAGIKSFLHESGDD
**Q.** For B2, which Km ([5]; pH 8, 37°C) is on record?
**A.** 3000 ± 400 µM

**Q.** And the kcat ([5]; pH 8, 37°C)?
**A.** 3.1 ± 0.3 s⁻¹

**Q.** What about the kcat/Km ([5]; pH 8, 37°C) of the same molecule?
**A.** 1000 M⁻¹ s⁻¹

**Q.** What about the Km ([7]; pH 8, 37°C) of the same molecule?
**A.** 1400 ± 100 µM

**Q.** What about the kcat ([7]; pH 8, 37°C) of the same molecule?
**A.** 3.9 ± 0.2 s⁻¹

**Q.** And the kcat/Km ([7]; pH 8, 37°C)?
**A.** 2800 M⁻¹ s⁻¹

B3: PpEST-2 (Pseudomonas putida KT2440) (protein)
chain: MSTFVTRDGTSIYFKDWGSGKPVLFSHGWPLDADMWDSQMEFLASRGYRAIAFDRRGFGRSSQPWNGYDYDTFADDIAQLIEHLDLRDVTLVGFSMGGGDVSRYIARHGSERVAGLVLLGAVTPVFGKRDDNPDGVDLSVFEGIRAGLRADRAQFIADFATPFYGLNHGQQVSQGVQTQTLNIALMASIKGTLDCVTAFSETDFRPDMAKVDVPTLVIHGDDDQIVPFETTGKQAAELIRGAELKVYAGAPHGFAVTHAQQLNEDLLAFLQR
**Q.** How did the Km ([5]; pH 9, 37°C) turn out when B3 was run?
**A.** 1000 ± 100 µM

**Q.** And the kcat ([5]; pH 9, 37°C)?
**A.** 3 ± 0.1 s⁻¹

**Q.** What about the kcat/Km ([5]; pH 9, 37°C) of the same molecule?
**A.** 3000 M⁻¹ s⁻¹

**Q.** What about the Km ([7]; pH 9, 37°C) of the same molecule?
**A.** 1100 ± 100 µM

**Q.** And the kcat ([7]; pH 9, 37°C)?
**A.** 12.5 ± 0.5 s⁻¹

**Q.** What about the kcat/Km ([7]; pH 9, 37°C) of the same molecule?
**A.** 11400 M⁻¹ s⁻¹

B4: PaEST-1 (Pseudomonas aeruginosa) (protein)
chain: MKRFLLGLVLLLAVAAGVLYFVPATLLASVRTVERGLAGLSEHSVQVDNLEIAYLEGGSEKNPTLLLIHGFGADKDNWLRFARPLTERYHVVALDLPGFGDSSKPQQASYDVGTQAERVANFAAAIGVRRLHLAGNSMGGHIAALYAARHPEQVLSLALIDNAGVMPARKSELFEDLERGENPLVVRQPEDFQKLLDFVFVQQPPLPAPLKRYLGERAVAASAFNAQIFEQLRQRYIPLEPELPKIEAPTLLLWGDRDRVLDVSSIEVMRPLLKRPSVVIMENCGHVPMVERPEETAQHYQAFLDGVRNAQVAGR
**Q.** Which results are given for B4?
**A.** Km [9]: 1200 ± 200 µM; kcat [9]: 9.2 ± 1 s⁻¹; kcat/Km [9]: 7600 M⁻¹ s⁻¹; Km [10]: 1400 ± 200 µM; kcat [10]: 1.9 ± 0.2 s⁻¹; kcat/Km [10]: 1300 M⁻¹ s⁻¹; Km [11]: 1400 ± 400 µM; kcat [11]: 12.9 ± 2.4 s⁻¹; kcat/Km [11]: 9200 M⁻¹ s⁻¹

B5: RpEST-2 (Rhodopseudomonas palustris CGA009) (protein)
chain: MSEAVMAGAEAFAFDGGKTGVLLVHGFTGSPQSMRYLGERLGERGYSILGPRLPGHGVSPAAMAKTTANDWVNCAEDALLELSAKCDKTFVAGLSMGGTLSLYLAASHPDKVAGVIPINAAVQIDSPDLAGLAYARGLPEFVPGIGSDMVDTSTKELAYDQVPVTCVKQVMGLAATARALLPRIKCPTLVINSRVDHVLSPANATVIANHVGSSRIETLWLDNSYHVATIDNDKDLIAAEIDSFVTRNL
**Q.** B5 was tested. Which Km [12] did it give?
**A.** 4900 ± 1800 µM

**Q.** What about the kcat [12] of the same molecule?
**A.** 24.4 ± 7.8 s⁻¹

**Q.** And the kcat/Km [12]?
**A.** 4900 M⁻¹ s⁻¹

**Q.** What about the Km [13] of the same molecule?
**A.** 1400 ± 200 µM

**Q.** What about the kcat [13] of the same molecule?
**A.** 52.7 ± 4.3 s⁻¹

**Q.** What about the kcat/Km [13] of the same molecule?
**A.** 37600 M⁻¹ s⁻¹

B6: RpEST-3 (Rhodopseudomonas palustris CGA009) (protein)
chain: MPSFDHAGVNIAYLDEGEGEPILLIHGFASNKNVNWVYPSWLSELKRTGRRVIAIDNRGHGESSKLYDPNDYTLEAMASDAVALMDHLGIARADVMGYSMGARIGANLARRQEQRVRSVVLGGLGMGLLSNEGRPGENVARALEADALDDVTDPVGRTFRAFADQTRSDRKALAACMRGSRGLMSREDAAQIAVPVLIAVGTDDDVAGSAHELGDIIPGSQVLDIPRRDHMRAVGDRVYKEGVVDFLARRP
**Q.** Which results are given for B6?
**A.** Km [14]: 2100 ± 300 µM; kcat [14]: 5 ± 0.4 s⁻¹; kcat/Km [14]: 2400 M⁻¹ s⁻¹; Km [15]: 3600 ± 400 µM; kcat [15]: 7.2 ± 0.7 s⁻¹; kcat/Km [15]: 2000 M⁻¹ s⁻¹

B7: SavEST-1 (Streptomyces avermitilis MA-4680 = NBRC 14893) (protein)
chain: MTSQHVVGRFFDVQGGQVYAHVREGDGPALIFLHYWGGSRRTWIPVLQRLDPGQGFVAYDQRGWGGSTSVPGPYDLEQLADDAQRVVDALGYSRYVLVGHSMGGKVAQILAARKPAGLRGVVLVAPAPPAPIGVTEQVQETVSHAYDNEEAVLQSIDLMLTRGGLTPELRRQVVEDSLRGGDEARLEWPRRGLVQDVSAGVSAIEVPVLVLAGSHDKVDPPTVLADHLLPLIPTATLTVLKDTGHLSPLEVPDQVAAHIGAFVAQL
**Q.** B7 was tested. Which Km [16] did it give?
**A.** 300 ± 0 µM

**Q.** And the kcat [16]?
**A.** 2.9 ± 0.1 s⁻¹

**Q.** And the kcat/Km [16]?
**A.** 9500 M⁻¹ s⁻¹
